The text below walks through data of publication PMC4091690, “A Broadly Conserved G-Protein-Coupled Receptor Kinase Phosphorylation Mechanism Controls Drosophila Smoothened Activity” (PLoS Genetics, 2014).

B1: Smo^core (Drosophila Smoothened amino acids 1-663), C-terminally tagged with GFP10 S634 [Drosophila] / Costal-2 (Cos2), C-terminally tagged with Renilla luciferase II … (parent)
chain 1: MEIPIQVAVRIFPHRELKDLLRSFGPTEPKKDAQAVDEGADSKDSEAQVPAAEKDNPSISETDPNGNAEQDSAADSKTIPDANGNDSGQKDYPDSAYCVQAIPISASALGLPSALPGGDPMDSIAAGLIQVGPHTVPVTHALPSSSSQEQVYHQTVFPLITLFLEGFDASVVTYGQRGQGKSYTLYGNVQDPTLTDSTEGVVQLCVRDIFSHISLHPERTYAINVGFVEICGGDVCDLLGMGNIHCTNVDAVFHWLQVGLSARQSLPAHTLFTLTLEQQWVSKEGLLQHRLSTASFSDLCGTERCGDQPPGRPLDAGLCMLEQVISTLTDPGLMYGVNGNIPYGQTTLTTLLKDSFGGRAQTLVILCVSPLEEHLPETLGNLQFAFKVQCVRNFVIMNTYSDDNTMIVQPAEPVPESNSSAGPLSQAGPGDNFGLQFAASQWSKLVTNAEGLFSKLIDSKLITEVEKEQIEEWLFLKQECEECLSSTEAMRQQKQLVPILEAEEPEDVNSEAANSESPNSDNENDTDNESHRPDLDDKIESLMEEFRDKTDALILEKHAEYLSKHPKAVMQSQDREIEAQPPEENGDDRKVSIGSRRRSVQPGASLSTAELAMLNRVASQQPPPPIDPESVVDPLESSSGEGIRQAALAAAAATAPIEQLQKKLRKLVAEIEGKQRQLREIEETIQVKQNIIAELVKNSDTRSHAKQRFHKKRAKLEAECDKAKKQLGKALVQGRDQSEIERWTTIIGHLERRLEDLSSMKHIAGESGQKVKKLQQSVGESRKQADDLQKKLRKECKLRCQMEAELAKLRESRETGKELVKAQGSPEQQGRQLKAVQARITHLNHILREKSDNLEEQPGPEQQETLRHEIRNLRGTRDLLLEERCHLDRKLKRDKVLTQKEERKLLECDEAIEAIDAAIEFKNEMITGHRSIDTSDRIQREKGEQMLMARLNRLSTEEMRTLLYKYFTKVIDLRDSSRKLELQLVQLERERDAWEWKERVLSNAVRQARLEGERNAVLLQRQHEMKLTLMLRHMAEETSASSASYGERALAPACVAPPVQASSDFDYDHFYKGGGNPSKALIKAPKPMPTGSALDKYKDKEQRSGRNIFAKFHVLTRYASAAAAGSSGSTAEESTALIESTTTATATTTSTTTTGAVGKVKDKALVSFRPEQLKRLMPAPTATKVTRQKNKIIIQDASRRN
chain 2: SSAKFGSTTPASAQQSDVELEPINGTLNYRLYAKKGRDDKPWFDGLDSRHIQCVRRARCYPTSNATNTCFGSKLPYELSSLDLTDFHTEKELNDKLNDYYALKHVPKCWAAIQPFLCAVFKPKCEKINGEDMVYLPSYEMCRITMEPCRILYNTTFFPKFLRCNETLFPTKCTNGARGMKFNGTGQCLSPLVPTDTSASYYPGIEGCGVRCKDPLYTDDEHRQIHKLIGWAGSICLLSNLFVVSTFFIDWKNANKYPAVIVFYINLCFLIACVGWLLQFTSGSREDIVCRKDGTLRHSEPTAGENLSCIVIFVLVYYFLTAGMVWFVFLTYAWHWRAMGHVQDRIDKKGSYFHLVAWSLPLVLTITTMAFSEVDGNSIVGICFVGYINHSMRAGLLLGPLCGVILIGGYFITRGMVMLFGLKHFANDIKSTSASNKIHLIIMRMGVCALLTLVFILVAIACHVTEFRHADEWAQSFRQFIICKISSVFEEKSSCRIENRPSVGVLQLHLLCLFSSGIVMSTWCWTPSSIETWKRYIRKKCGKEVVEEVKMPKHKVIAQTWAKRKDFEDKGRLSITLYNTHTDPVGLNFDVNDLNSSETNDISSTWAAYLPQCVKRRMALTGAATGNSSSHGP

Variants of B1 are the subject of the assay. As to the kind of experiment: BRET. Conditions: with Costal-2 (Cos2), S2 cells treated with smo 3′UTR dsRNA to deplete endogenous Smo, parent: 100, read off a plot. (In BRET a luciferase serves as donor, and the signal depends on an acceptor being close.)
On to chain 2 S573A T575A T579A T581A S595A S596A T598A S602A S603A T604A T620A T624A S627A S628A S629A, for which the response came to 30.
